Experimental data as given in patent publication US10513547B2, “Peptides and combination of peptides and scaffolds thereof for use in immunotherapy against colorectal carcinoma (CRC) and other cancers” (Immatics Biotechnologies GmbH, priority 2015, dated 2019).

Tests used:
CD8+ T-cells = experiment: In vitro T-cell priming assay with aAPCs loaded with peptide/MHC and anti-CD28, pMHC multimer readout; assay type: cell-based, human; settings: for Wells positive [%]: HLA-A*02 restricted peptides, positive wells among evaluable; for donors (in vitro immunogenicity, positive donors) / wells (in vitro immunogenicity, positive wells): HLA class I peptides, healthy donor CD8+ T-cells, multimer staining
Source text: In order to obtain information regarding the immunogenicity of the TUMAPs of the present invention, the inventors performed investigations using an in vitro T-cell priming assay based on repeated stimulations of CD8+ T-cells with artificial antigen presenting cells (aAPCs) loaded with peptide/MHC complexes and anti-CD28 antibody.
In order to perform in vitro stimulations by artificial antigen presenting cells loaded with peptide-MHC complex (pMHC) and anti-CD28 antibody, the inventors first isolated CD8+ T-cells from fresh HLA-A*02 leukapheresis products via positive selection using CD8 microbeads (Miltenyi Biotec, Bergisch-Gladbach, Germany) of healthy donors obtained from the University clinics Mannheim, Germany, after informed consent.
PBMCs and isolated CD8+ lymphocytes were incubated in T-cell medium (TCM) until use consisting of RPMI-Glutamax (Invitrogen, Karlsruhe, Germany) supplemented with 10% heat inactivated human AB serum (PAN-Biotech, Aidenbach, Germany), 100 U/ml Penicillin/100 μg/ml Streptomycin (Cambrex, Cologne, Germany), 1 mM sodium pyruvate (CC Pro, Oberdorla, Germany), 20 μg/ml Gentamycin (Cambrex). 2.5 ng/ml IL-7 (PromoCell, Heidelberg, Germany) and 10 U/ml IL-2 (Novartis Pharma, Nürnberg, Germany) were also added to the TCM at this step.
Generation of pMHC/anti-CD28 coated beads, T-cell stimulations and readout was performed in a highly defined in vitro system using four different pMHC molecules per stimulation condition and 8 different pMHC molecules per readout condition.
The purified co-stimulatory mouse IgG2a anti human CD28 Ab 9.3 (Jung et al., 1987) was chemically biotinylated using Sulfo-N-hydroxysuccinimidobiotin as recommended by the manufacturer (Perbio, Bonn, Germany). Beads used were 5.6 μm diameter streptavidin coated polystyrene particles (Bangs Laboratories, Illinois, USA).
800.000 beads/200 μl were coated in 96-well plates in the presence of 4×12.5 ng different biotin-pMHC, washed and 600 ng biotin anti-CD28 were added subsequently in a volume of 200 μl. Stimulations were initiated in 96-well plates by co-incubating 1×10^6 CD8+ T-cells with 2×10^5 washed coated beads in 200 μl TCM supplemented with 5 ng/ml IL-12 (PromoCell) for 3 days at 37° C. Half of the medium was then exchanged by fresh TCM supplemented with 80 U/ml IL-2 and incubating was continued for 4 days at 37° C. This stimulation cycle was performed for a total of three times. For the pMHC multimer readout using 8 different pMHC molecules per condition, a two-dimensional combinatorial coding approach was used as previously described (Andersen et al., 2012) with minor modifications encompassing coupling to 5 different fluorochromes. Finally, multimeric analyses were performed by staining the cells with Live/dead near IR dye (Invitrogen, Karlsruhe, Germany), CD8-FITC antibody clone SK1 (BD, Heidelberg, Germany) and fluorescent pMHC multimers. For analysis, a BD LSRII SORP cytometer equipped with appropriate lasers and filters was used. Peptide specific cells were calculated as percentage of total CD8+ cells. Evaluation of multimeric analysis was done using the FlowJo software (Tree Star, Oreg., USA). In vitro priming of specific multimer+ CD8+ lymphocytes was detected by comparing to negative control stimulations.

HLA-A*02:01 = HLA-A*02:01 (Homo sapiens, UniProt P04439, D140Y/D185E/D98H/E176V/E277Q/G131W/G231S/I119V/I121R/I166T/I218V/L300P/L318F/N151K/N90K/P208A/P217A/Q86G/Q94H/R138H/R169H/T345S); experiment: MHC binding assay (UV-ligand exchange, beta2m ELISA, peptide exchange yield); settings: binding to HLA-A*02:01
Source text: Candidate peptides for T cell based therapies according to the present invention were further tested for their MHC binding capacity (affinity). The individual peptide-MHC complexes were produced by UV-ligand exchange, where a UV-sensitive peptide is cleaved upon UV-irradiation, and exchanged with the peptide of interest as analyzed. Only peptide candidates that can effectively bind and stabilize the peptide-receptive MHC molecules prevent dissociation of the MHC complexes. To determine the yield of the exchange reaction, an ELISA was performed based on the detection of the light chain ([…]) of stabilized MHC complexes. The assay was performed as generally described in Rodenko et al. (Rodenko et al., 2006).
96 well MAXISorp plates (NUNC) were coated over night with 2 ug/ml streptavidin in PBS at room temperature, washed 4× and blocked for 1 h at 37° C. in 2% BSA containing blocking buffer. Refolded HLA-A*02:01/MLA-001 monomers served as standards, covering the range of 15-500 ng/ml. Peptide-MHC monomers of the UV-exchange reaction were diluted 100 fold in blocking buffer. Samples were incubated for 1 h at 37° C., washed four times, incubated with 2 ug/ml HRP conjugated anti-β2m for 1 h at 37° C., washed again and detected with TMB solution that is stopped with […]. Absorption was measured at 450 nm. Candidate peptides that show a high exchange yield (preferably higher than 50%, most preferred higher than 75%) are generally preferred for a generation and production of antibodies or fragments thereof, and/or T cell receptors or fragments thereof, as they show sufficient avidity to the MHC molecules and prevent dissociation of the MHC complexes.

Peptide exchange (MHC class I binding score, peptide exchange yield) (HLA-A*02:01)	Substance	also measured
“+++” (≥50 = +++)	59 (LLTDNVVKL; listed as Homo sapiens) [compound 59]	Wells positive [%] (CD8+ T-cells): “+” (<20% = +)
“+++” (≥50 = +++)	142 (SLVQRVETI; listed as Homo sapiens) [compound 142]	Wells positive [%] (CD8+ T-cells): “+” (<20% = +)
“+++” (≥50 = +++)	127 (RLAELTVDEFLA; listed as Homo sapiens) [compound 127]	Wells positive [%] (CD8+ T-cells): “+” (<20% = +)
“++++” (≥75% = ++++)	5 (WLFDDGGLTL; listed as Homo sapiens) [compound 5]	Wells positive [%] (CD8+ T-cells): “++” (20%-49% = ++)
	220 (KMDPVAYRV; listed as Homo sapiens) [compound 220]	donors (in vitro immunogenicity, positive donors) (CD8+ T-cells): ++++ (>=70% = ++++); wells (in vitro immunogenicity, positive wells) (CD8+ T-cells): +++ (50% − 69% = +++)
“++” (≥20% = ++)	47 (KLYERCEVV; listed as Homo sapiens) [compound 47]	Wells positive [%] (CD8+ T-cells): “+” (<20% = +)
“+++” (≥50 = +++)	19 (RLYTKLLNEA; listed as Homo sapiens) [compound 19]	Wells positive [%] (CD8+ T-cells): “+++” (50%-69% = +++)
“+++” (≥50 = +++)	10 (RMYNKIFAI; listed as Homo sapiens) [compound 10]	Wells positive [%] (CD8+ T-cells): “++++” (> = 70% = ++++)
“++” (≥20% = ++)	32 (KLNTETFGV; listed as Homo sapiens) [compound 32]	Wells positive [%] (CD8+ T-cells): “++” (20%-49% = ++)
“+++” (≥50 = +++)	124 (RVLPPSALQSV; listed as Homo sapiens) [compound 124]	Wells positive [%] (CD8+ T-cells): “+” (<20% = +)
“++++” (≥75% = ++++)	147 (TLTELRAFL; listed as Homo sapiens) [compound 147]	
“++” (≥20% = ++)	78 (ALDPELLLL; listed as Homo sapiens) [compound 78]	
“+++” (≥50 = +++)	81 (ALLSQQTHL; listed as Homo sapiens) [compound 81]	
“+++” (≥50 = +++)	153 (ILFSEDSTKLFV; listed as Homo sapiens) [compound 153]	
“++” (≥20% = ++)	26 (GLASKENFSNVSL; listed as Homo sapiens) [compound 26]	
“+++” (≥50 = +++)	71 (RLWTEIPTAI; listed as Homo sapiens) [compound 71]	
“+++” (≥50 = +++)	118 (LLADLKTMV; listed as Homo sapiens) [compound 118]	
“+++” (≥50 = +++)	126 (TLAKYLMEL; listed as Homo sapiens) [compound 126]	
“++” (≥20% = ++)	82 (QLYEEPDTKL; listed as Homo sapiens) [compound 82]	
“+++” (≥50 = +++)	29 (QMLDVAIRV; listed as Homo sapiens) [compound 29]	
“+++” (≥50 = +++)	94 (KSMDIVLTV; listed as Homo sapiens) [compound 94]	
	219 (FLDEKGRCV; listed as Homo sapiens) [compound 219]	donors (in vitro immunogenicity, positive donors) (CD8+ T-cells): +++ (50% − 69% = +++); wells (in vitro immunogenicity, positive wells) (CD8+ T-cells): ++ (20% − 49% = ++)

Peptide exchange (MHC class I binding score, peptide exchange yield) (HLA-A*02:01)	Substance	also measured
“++” (≥20% = ++)	171 (RLQETEGMVAV; listed as Homo sapiens) [compound 171]	
“++++” (≥75% = ++++)	25 (SLADRLIGV; listed as Homo sapiens) [compound 25]	
“+++” (≥50 = +++)	137 (QLTEIKPLL; listed as Homo sapiens) [compound 137]	
“+++” (≥50 = +++)	145 (LLLEVVKQV; listed as Homo sapiens) [compound 145]	
“++” (≥20% = ++)	178 (YLFREPATI; listed as Homo sapiens) [compound 178]	
“+++” (≥50 = +++)	162 (KLMDYIDEL; listed as Homo sapiens) [compound 162]	
“+++” (≥50 = +++)	148 (RLLENMTEVV; listed as Homo sapiens) [compound 148]	
“++” (≥20% = ++)	52 (ALDSSNSMQTI; listed as Homo sapiens) [compound 52]	
“+++” (≥50 = +++)	155 (RLLGEEVVRV; listed as Homo sapiens) [compound 155]	
“+++” (≥50 = +++)	185 (VLYTGVVRV; listed as Homo sapiens) [compound 185]	
“+++” (≥50 = +++)	106 (SLISEKILL; listed as Homo sapiens) [compound 106]	
“+++” (≥50 = +++)	179 (RLLSPLSSA; listed as Homo sapiens) [compound 179]	
“++” (≥20% = ++)	62 (YLAPENGYL; listed as Homo sapiens) [compound 62]	
“+++” (≥50 = +++)	188 (FLVDGPRVQL; listed as Homo sapiens) [compound 188]	
“+++” (≥50 = +++)	100 (SLDDFLATA; listed as Homo sapiens) [compound 100]	
“+” (≥10% = +)	114 (TAVGHALVL; listed as Homo sapiens) [compound 114]	
“+++” (≥50 = +++)	158 (GLLDPSVFHV; listed as Homo sapiens) [compound 158]	
	3 (RLIPDTLYSV; listed as Homo sapiens) [compound 3]	Wells positive [%] (CD8+ T-cells): “+++” (50%-69% = +++)
“++” (≥20% = ++)	152 (KLLAVIHEL; listed as Homo sapiens) [compound 152]	
“+++” (≥50 = +++)	139 (VLLNEILEQV; listed as Homo sapiens) [compound 139]	
“+++” (≥50 = +++)	108 (SLAELVPGVGGI; listed as Homo sapiens) [compound 108]	
